Reference: the supplement of paper PMC12636428

System: Saccharomyces cerevisiae
Experiment: transcriptional activation domain activity (GFP:mCherry ratio, weighted mean of sorted bins, harmonized to initial dataset scale) (arbitrary fluorescence ratio units); higher = stronger transcriptional activation
Settings: beta-estradiol 1 µM; induction time 4 h
Procedure, shortened: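 Barcoded tiles were sequenced after cells were sorted into 8 bins by GFP:mCherry ratio. Before sorting, cultures had been diluted 1:5 into SC with 1 uM beta-estradiol and held for 4 hours at 30 °C. The tiles were fused to an estradiol-inducible synthetic transcription factor and integrated at URA3 in yeast diploids carrying a GFP reporter. Activation activity is the read-weighted mean of bin median fluorescence, averaged over barcodes and linearly mapped onto the initial dataset scale, and tiles under 50 reads were left out.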

Row | Sequence | transcriptional activation domain activity
1 | MAEADQSSHHQPEPRRTHRKSRNGCVTCKQRRVKCDEGRPTCQKCSFGNRPCS | 41900
2 | MAEDSDPSADGGLPMPYSCYECRNRKLKCDRRKDGCSRCAQAGGKCHYPTSRK | 48800
3 | MAEEQPAKPKKHRAAKPKVSTGCVTCKQRRIKCGEEKPHCMRCVKTGRECGGY | 41800
4 | MAEKRATSTAPGPSTSLQRGKACLRCRKRKMRCDGSKPACQQCVRAKKADGCE | 21500
5 | MAERNLTLFSSFFFFLLFFFFFFFFFLEDVFLFFLRMLFTFVGSWFFFFFSYL | 7100
6 | MAETTTSDSGASSSTALQRGKACLRCRKRKMRCDGQKPACSQCVKARKTDACE | 34100
7 | MAFCSIPFYSPPPPQFRFISTFSPFPRFIIGPLFHPLLARKLFDFLLIFIVSF | 62700
8 | MAFFYLCYIIISLVLYLFFLCSSFCCFMIHEFSLLSSLSQFSQRVYIGWSFFR | 58300
9 | MAFGAVLGLFICDADKVVRADGSRIILMKHPSWKTEIVGLWQTLIAEPWIIML | 51400
10 | MAFKLSTAEKVYLALRLTLLTPFHILTSLIRSFILSLSRGLPPRLFWVCAVLR | 49500
11 | MAFLYLELPLVGMTFGGGRRGWGFMYLFLFLSFSFFFIQLWFGLVWVMTLCEV | 63600
12 | MAGAVPVLMLILLLLSHLCTAFKFYSESGFALVRKILLTALPTFEPHHYQMDG | 71600
13 | MAGAVPVLMLILLQLSHLCTAFKFYSESGFALVRKILLTALPTFEPHHYQMDG | 64300
14 | MAGDDEEGRDADGEPDNAATPAKRQRVSRACDQCRAARERCDGKPQCHPCVSQ | 34100
15 | MAGENGGLGAFRDGSADGVGRGADLVSSLEQTRGYQMEMFQESLRRNIIVAMD | 62800
16 | MAGIVTRVCLILCSPLFPLSLRNFIILHCVYLPLSNSWYISPPFLLYCLQTVY | 62700
17 | MAGQNNPFVGAVFSGLFLGYMILAAALSIFFLLYFNRVFASIVSWGIRAWTWR | 31200
18 | MAGRKRAAAEDTTEKRETRSSKVAKTEGTKTAGKAAKGTARLKARLIISLTIL | 34500
19 | MAGSFFFSFFFLSLFMLFHFLSLSFLIFFFLSSLSSFAFLLLLISPFGPPNPH | 54400
20 | MAGVGYYDLKQLMMVFLLVWLLAICVGPWYQGCFSPSFLLFCFYQPYIFISFL | 52900
21 | MAHLAYHPLYPLWDLLSHTLIMLIFLITLICLLCPFPSLFIFTPICLSVYLLI | 27200

Row | Sequence | transcriptional activation domain activity
22 | MAHRFWTLQLFGNIYIIQFLGCIGFGLSLWILMHLINMIEVRNQTIQLSMLFA | 62800
23 | MAIDCLALHIPTCVNLWGHVLYVQLVTVMYPSHFFFSFYFIFIFILFLFFLFF | 14300
24 | MAIDIFFCLAVHIPTCVNLWGHVRTILYVQLVTVMYPSHFLFYFLFLLFYFFL | 34200
25 | MAIFRIYVLIAVVRLGDILTDIYVVGGVLLLLRYQVFLMFFHFFFFLFFYTGL | 43700
26 | MAIGLSACSILFLFSFTCVFFSFLSCLFLHPFFFLSFLFSLSLSLSLFFFFFA | 66200
27 | MAIQAFFVICIIKILLYFLFFFFLFLSLLLYTYMYIHICAYVFYKIEKHVKSM | 51000
28 | MAITHAALPPMCRISLIRVWIETMLYGFNCVMYGLCMFIPVEGRLLLCWMLIV | 50700
29 | MAIYEAASTPGSSAGSHADKPYHSKRPHRKSRKGCRTCKARKVKCDEVRPSCT | 27900
30 | MAKCIVTQTFLAASKTKTGYTIHQIRYTMTFWEIYENLLAIYLLIHPQWHLSF | 40200
31 | MAKGGAKDKKSVEKKGADKGKGKSDEAADKGSKGKGGLKAATAVNVRHILCEK | 23500
32 | MAKKASGSADKKTADKGDKKGKAKPTADDGEDKQSKGKGALKAATAVNVRHIL | 44600
33 | MAKKASGSAEKKGGDKADKKGKAKAKADDSDVEDKGSKGKGALKAATAVNVRH | 9660
34 | MAKKGSASTDKKAADKSDKKGKAKATTDDGEEKQAKGKGSLKAATAVNVRHIL | 36900
35 | MAKLRELMKKLEEEVVGEDGEKRMVQPTIMQEPFRSFFRTAVSVYLPNVLGAK | 52600
36 | MAKSDPHQPGRIRAFKPKVSTGCKTCKIRRVKCDEAKPACKRCSSTGRKCDGY | 16300
37 | MAKTRLIETIHTAFCIEFIYQYLIIGYGNPLVLAQIHWSVVCLLACTLLIVFL | 55500
38 | MALASPVFFFFYLYFIILLFGVGIYLFTFVMSYHTMVMQIIHVSCYNHRYIPV | 47200
39 | MALEFLMDDIHLNKFLLLGYGVISKFLIVCHRYSKVVGETYYVIHTGIFYLLG | 56200
40 | MALEQRCQPTCEAVLLFLLLLFLPLWLLFERFKNLLLLLWPLFFFFFLLLLLW | 35100
41 | MALFLGCIDFGQYKLNLEKYSGWLTIPLVPSEQALFYHTVKIIYSIFLHPLRN | 66500
42 | MALFLSIFLLFFFLLYLSQITHFHGILFCFFLLCAPCLYIPDSCNPLIQPLFP | 35300

Row | Sequence | transcriptional activation domain activity
43 | MALFRALPLKIRNLIYLKLLNVSPLWISPIWIITDYYKERPIPLLKGLSLFLV | 45400
44 | MALHALLHLLNVYYQGCLPYNVLVITVCTMLYKLFFSKSFYCRFRRFGRPWYL | 54300
45 | MALIAFFLLFYLINLLYSLKLFLQYFFFTFTIPYLYIAYAFFFILYSLFLVFS | 42900
46 | MALKAREELEEIYGMPVIYIPVFISCMHRINAVLLSLGNFLLISGAYLRSSFV | 53200
47 | MALLSQVARLLGSFLCVAISCFGRLALLFLWLILAYFTFWSFFSGNLPICFCL | 59300
48 | MALNLFQKEIFLILFLLFYYFAILLFCYFIILLFCYLIFLFFLFHLSLSSLIF | 26300
49 | MALPKDRDEEKEDEKDNAPKKGKRGPRKRVSQACDRCRTRKDKCDGKKPSCST | 20800
50 | MALPLHFRYVSVTFIFLASFFWPVGFFSFFSLFFPATNSFLLFLSAFFRLVLF | 54100
51 | MALPVIFLFFLHVNILLLCRRFLLVFFLLLVFFLLLVFFFLLLVFFLLLVFLL | 66200
52 | MALYLTFRHCPELFYWVKLRRVSRKIHTFISSIFNIFLYVLMLMNGCIIHHYI | 57200
53 | MAMGLMCKACLLTPQHFLPLLWPSYPRPFFFFFFFYYSYCCSCCDCISIFGLN | 43400
54 | MAMGYMRFCALAISILLFREGKELTQRGSCGCLIYVCVRLEVGYYRLVFLIGY | 54700
55 | MAMTPVRGEGNDGYRTSDGEMESGGTRAQGKVIQRSRWVASSHIVAPAEVEKP | 27500
56 | MAMVRCMDLYNLDGNGMGKFYTWQFFPFFRFWFLPVCMLLLPFVLVSCLAFFI | 58400
57 | MANHQLYTDWLYLWWIAYTNKMAGHVYIILKESLKNIPLIGWGAQFYNFIFLA | 54800
58 | MANVRFFVGLQRLFPFLAFHHLLMLCHIIVIILLSILLAGCSSYSSMINVYIL | 70400
59 | MAPAPAPVAAPPAPETREAPPASPRGRSRSRSRSPAFRRPSPPAPRRPVGAPA | 29100
60 | MAPCIPVMYLSVSSTSFLFLSFFILGWWILFSFTIFPATNSFLCFWAPFFFSH | 46100
61 | MAPETADKPSRRRHIKSRSGCKNCKKRKVKCGEERPSCRNCSRRGSLCDLADE | 20400
62 | MAPETKNKKRKSGVTASSPSTKKLKKAEAPVAEEAPAPVKSTKKSKAAAPKAE | 43300
63 | MAPFSPFVYFFLFLVHNSWLFCFLLVCFPFFSILVFLSFCPFLSPFTSRFSFL | 56600

Row | Sequence | transcriptional activation domain activity
64 | MAPKAPEASPPKRGRGRPRKAESEKKTKAYEPTGRPRGRPKGSGGVKKSVAAT | 19600
65 | MAPPFLGHFFGLYPSIMIRFPCLLLYRFATVYLGVLLFPFSILFFILFIFYFF | 34200
66 | MAPPTSKTTPDSPDSGAPRKRRRTALACEECRDRKRKCDGVKPVCGACKTRPA | 21900
67 | MAPQRRPAAEVISSDSDDEAARPTGSAATRSAGGGGAGGGRRIVLTGRGNNSS | 20400
68 | MAPSASAGGSGAAKPKKTRAKHACRECNSRRVKCNVTERQPCTNCAASGATCE | 11700
69 | MAPTKAVAPAPAAAADGTVKRGRGRPPKDPSERKPKPEPSGRPRGRPKGSGGV | 33400
70 | MAPTTPTNSNGETPVKRGRGRPPKPEHEKKLKPAPSGRGRGRPKGSGVKKTGG | 39100
71 | MAPVTQTEWPRQRALHSKSRNGCTTCKQRRVKCDEGKPVWPSAARTAGADRSS | 50600
72 | MAPWDDAPAPFAADGDADDVTGSELAERFNKESGKVNAQLSAFPSALLCGRDK | 61900
73 | MAQTTPESASSSQSTLARGKACLRCRKRKMRCDGAKPACGQCVKAHKPDACQY | 24400
74 | MAQVAVFLVHKVLYGIIPLFEIQTCAYFPLLVSLWHLNYMLFYVVMFMRLIIL | 45300
75 | MAQVAVFVVHKFLYGIIPLFEISTCAYFPLLVSLWHLNYLLFYAVMFMRLIIL | 75000
76 | MARAKPTRIVESDEDDSDSGQLSSAPAKRKAGSEDANPAAKRARTASAKQKQL | 63000
77 | MARCYRLVMCFPFSLCFEYSALILTCSFFSPFIPFRLWCHAVPCGSGVFLFLH | 65700
78 | MARLHIGQLCSRSFFYALLVLSTWSSKLVYLWPHLTSSLPPLLIVLYIPTFLL | 72900
79 | MARLLFIPIFVNLSFPHHKSYFFLTSMLTLLLQLYLLLSLCWLILLLPCLKDS | 40400
80 | MARNIYVIYIPKSICCSLPLSVPLSLLPLPSLPLFPSLTSTLLFFVLFHFFLL | 49600
81 | MARQLYSPFFIFLYLPSCIYKNILFSSFLFFLTSLIGIFLHPFFNIVCFICQM | 58500
82 | MARQPSAPNAASDRGAATTTPRKPTTRSRTGCSACRKRRTKCDEARPACGHCV | 44600
83 | MASALLDFPYLHLGIPSFLRVNLFLNIHVHFFFVHFCLSPSVRFIFFYFFLYL | 50300
